In US20220089698A1:

How the values were obtained:
[1] = molecular target: HIV-1 envelope glycoprotein (Env, gp120) of virus 1003 (HIV-1); assay: cell-based or functional assay
[2] = molecular target: HIV-1 envelope glycoprotein (Env, gp120) of virus 1012 (HIV-1); assay: cell-based or functional assay
[3] = molecular target: HIV-1 envelope glycoprotein (Env, gp120) of virus 1413 (HIV-1); assay: cell-based or functional assay
[4] = molecular target: HIV-1 envelope glycoprotein (Env, gp120) of virus 1489 (HIV-1); assay: cell-based or functional assay
[5] = molecular target: HIV-1 envelope glycoprotein (Env, gp120) of virus 302076 (HIV-1); assay: cell-based or functional assay
[6] = molecular target: HIV-1 envelope glycoprotein (Env, gp120) of virus 7015 (HIV-1); assay: cell-based or functional assay
[7] = molecular target: HIV-1 envelope glycoprotein (Env, gp120) of virus 7051 (HIV-1); assay: cell-based or functional assay
[8] = molecular target: HIV-1 envelope glycoprotein (Env, gp120) of virus 7103 (HIV-1); assay: cell-based or functional assay
[9] = molecular target: HIV-1 envelope glycoprotein (Env, gp120) of virus 7141 (HIV-1); assay: cell-based or functional assay
[10] = molecular target: HIV-1 envelope glycoprotein (Env, gp120) of virus 7467 (HIV-1); assay: cell-based or functional assay
[11] = molecular target: HIV-1 envelope glycoprotein (Env, gp120) of virus 7552 (HIV-1); assay: cell-based or functional assay
[12] = molecular target: HIV-1 envelope glycoprotein (Env, gp120) of virus 7576 (HIV-1); assay: cell-based or functional assay
[13] = molecular target: HIV-1 envelope glycoprotein (Env, gp120) of virus 7595 (HIV-1); assay: cell-based or functional assay
[14] = molecular target: HIV-1 envelope glycoprotein (Env, gp120) of virus 8106 (HIV-1); assay: cell-based or functional assay
[15] = molecular target: HIV-1 envelope glycoprotein (Env, gp120) of virus 8110 (HIV-1); assay: cell-based or functional assay
[16] = molecular target: HIV-1 envelope glycoprotein (Env, gp120) of virus 8117 (HIV-1); assay: cell-based or functional assay
[17] = molecular target: HIV-1 envelope glycoprotein (Env, gp120) of virus 8134 (HIV-1); assay: cell-based or functional assay
[18] = molecular target: HIV-1 envelope glycoprotein (Env, gp120) of virus 8176 (HIV-1); assay: cell-based or functional assay
[19] = molecular target: HIV-1 envelope glycoprotein (Env, gp120) of virus 8318 (HIV-1); assay: cell-based or functional assay
[20] = molecular target: HIV-1 envelope glycoprotein (Env, gp120) of virus 8320 (HIV-1); assay: cell-based or functional assay
[21] = molecular target: HIV-1 envelope glycoprotein (Env, gp120) of virus 92HT593 (HIV-1); assay: cell-based or functional assay
[22] = molecular target: HIV-1 envelope glycoprotein (Env, gp120) of virus 92US657 (HIV-1); assay: cell-based or functional assay
[23] = molecular target: HIV-1 envelope glycoprotein (Env, gp120) of virus 92US712 (HIV-1); assay: cell-based or functional assay
[24] = molecular target: HIV-1 envelope glycoprotein (Env, gp120) of virus 92US727 (HIV-1); assay: cell-based or functional assay
[25] = molecular target: HIV-1 envelope glycoprotein (Env, gp120) of virus CHO77 (HIV-1); assay: cell-based or functional assay
[26] = molecular target: HIV-1 envelope glycoprotein (Env, gp120) of virus REJO (HIV-1); assay: cell-based or functional assay
[27] = molecular target: HIV-1 envelope glycoprotein (Env, gp120) of virus THRO (HIV-1); assay: cell-based or functional assay
[28] = molecular target: HIV-1 envelope glycoprotein (Env, gp120) of virus VS001 (HIV-1); assay: cell-based or functional assay
[29] = molecular target: HIV-1 envelope glycoprotein (Env, gp120) of virus VS004 (HIV-1); assay: cell-based or functional assay
[30] = molecular target: HIV-1 envelope glycoprotein (Env, gp120) of virus VS017 (HIV-1); assay: cell-based or functional assay
[31] = molecular target: HIV-1 envelope glycoprotein (Env, gp120) of virus VS026 (HIV-1); assay: cell-based or functional assay
[32] = molecular target: HIV-1 envelope glycoprotein (Env, gp120) of virus VS030 (HIV-1); assay: cell-based or functional assay
[33] = molecular target: HIV-1 envelope glycoprotein (Env, gp120) of virus VS039 (HIV-1); assay: cell-based or functional assay
[34] = molecular target: HIV-1 envelope glycoprotein (Env, gp120) of virus VS042 (HIV-1); assay: cell-based or functional assay
[35] = molecular target: HIV-1 envelope glycoprotein (Env, gp120) of virus VS043 (HIV-1); assay: cell-based or functional assay
[36] = molecular target: HIV-1 envelope glycoprotein (Env, gp120) of virus VS044 (HIV-1); assay: cell-based or functional assay
[37] = molecular target: HIV-1 envelope glycoprotein (Env, gp120) of virus VS046 (HIV-1); assay: cell-based or functional assay
[38] = molecular target: HIV-1 envelope glycoprotein (Env, gp120) of virus VS049 (HIV-1); assay: cell-based or functional assay
BSA = BSA (UniProt P02769); assay: single-point ELISA
[39] = molecular target: HIV-1 envelope glycoprotein (Env, gp120) of virus 7714 (HIV-1); assay: cell-based or functional assay

| Binder | Virus Neutralization Potency [1] [µg/mL] | Virus Neutralization Potency [2] [µg/mL] | Virus Neutralization Potency [3] [µg/mL] | Virus Neutralization Potency [4] [µg/mL] | Virus Neutralization Potency [5] [µg/mL] | Virus Neutralization Potency [6] [µg/mL] | Virus Neutralization Potency [7] [µg/mL] | Virus Neutralization Potency [8] [µg/mL] | Virus Neutralization Potency [9] [µg/mL] | Virus Neutralization Potency [10] [µg/mL] | Virus Neutralization Potency [11] [µg/mL] | Virus Neutralization Potency [12] [µg/mL] | Virus Neutralization Potency [13] [µg/mL] | Virus Neutralization Potency [14] [µg/mL] | Virus Neutralization Potency [15] [µg/mL] | Virus Neutralization Potency [16] [µg/mL] | Virus Neutralization Potency [17] [µg/mL] | Virus Neutralization Potency [18] [µg/mL] | Virus Neutralization Potency [19] [µg/mL] | Virus Neutralization Potency [20] [µg/mL] | further results |
| --- | --- | --- | --- | --- | --- | --- | --- | --- | --- | --- | --- | --- | --- | --- | --- | --- | --- | --- | --- | --- | --- |
| Antibody 1.1.104-1 (antibody, human IgG1, kappa, V domains shown) VH: QVQLLQSGAAVTKPGASVRVSCEASGYNIRDYFIHWWRQAPGQGLQWVGWINPKTGQPNNPRQFQGRVSLTRHASWDFDTFSFYMDLKALRSDDTAVYFCARQRSDYWDFDVWGSGTQVTVSS VL: DIQMTQSPSSLSASVGDTATITCQANGYLNWYQQRRGKAPKLLIYDGSKLERGVPSRFSGRRWGQEYTLTINNLQPEDIATYFCQVYEFFGPGTRLDLKR | 1.44 | 2.87 | 4.34 | 0.28 | 0.1 | 0.67 | 1.32 | 1.82 | 6.57 | 0.06 | > 80 | 1.1 | 8.47 | 2.8 | 4.19 | 1.22 | 6.07 | 0.16 | 0.32 | 4.34 | Virus Neutralization Potency [21]: 0.28 µg/mL; Virus Neutralization Potency [22]: 0.36 µg/mL; Virus Neutralization Potency [23]: 0.04 µg/mL; Virus Neutralization Potency [24]: 10.6 µg/mL; Virus Neutralization Potency [25]: 0.03 µg/mL; Virus Neutralization Potency [26]: 0.02 µg/mL; Virus Neutralization Potency [27]: 4.27 µg/mL; Virus Neutralization Potency [28]: 0.34 µg/mL; Virus Neutralization Potency [29]: 4.8 µg/mL; Virus Neutralization Potency [30]: 2.33 µg/mL; Virus Neutralization Potency [31]: 0.19 µg/mL; Virus Neutralization Potency [32]: 7.9 µg/mL; Virus Neutralization Potency [33]: 0.1 µg/mL; Virus Neutralization Potency [34]: 2.33 µg/mL; Virus Neutralization Potency [35]: 1.49 µg/mL; Virus Neutralization Potency [36]: 0.28 µg/mL; Virus Neutralization Potency [37]: 0.03 µg/mL; Virus Neutralization Potency [38]: > 100 µg/mL |
| 1.36.35-1 (antibody, human IgG1, kappa, V domains shown) VH: QVQLVQSGAEVKKPGASVRVSCKASGYNIRDYFMHWWRQAPGQGLQWVGWINPKTGQPNNPRQFQGRVTMTRHASWDFDTFSAYMDLSRLRSDDTATYFCARQRTDYWDFDVWGQGTMVTVSS VL: DIQMTQSPSSLSASVGDRVTITCQANGYLNWYQQKPGKAPKLLIYDGSNLETGVPSRFSGSRWGQEYTLTISSLQPEDIATYFCQVYEFVGPGTNLDIKR | – | – | – | – | – | – | – | – | – | – | – | – | – | – | – | – | – | – | – | – | ELISA (A450) (BSA): 0.06 A450 |
| Antibody 1.1.119-1 (antibody, human IgG1, kappa, V domains shown) VH: QVQLLQSGAAVTKPGASVRVSCEASGYNIRDYFIHWWRQAPGQGLQWVGWINPKTGQPNNPRQFQGRVSLTRHASWDFDTFSFYMDLKALRSDDTAVYFCARQRSDYWDFDVWGSGTQVTVSS VL: DIQMTQSPSSLSASVGDRATITCQANGYLNWYQQRRGKAPKLLIYDGSKLERGVPSRFSGSRWGQEYTLTISSLQPEDIATYFCQVYEFFGPGTRLDLKR | 0.91 | 1.06 | 4.52 | 0.17 | 0.08 | 1.08 | 1.89 | 1.16 | 4.98 | 0.19 | > 80 | 0.6 | 3.07 | 1.44 | 2.37 | 1.66 | 3.44 | 0.27 | 0.42 | 1.47 | Virus Neutralization Potency [39]: 1.93 µg/mL; Virus Neutralization Potency [21]: 0.15 µg/mL; Virus Neutralization Potency [22]: 0.3 µg/mL; Virus Neutralization Potency [23]: 0.03 µg/mL; Virus Neutralization Potency [24]: 43.7 µg/mL; Virus Neutralization Potency [25]: 0.02 µg/mL; Virus Neutralization Potency [26]: 0.03 µg/mL; Virus Neutralization Potency [27]: 2.8 µg/mL; Virus Neutralization Potency [28]: 0.37 µg/mL; Virus Neutralization Potency [29]: 6.02 µg/mL; Virus Neutralization Potency [30]: 2.75 µg/mL; Virus Neutralization Potency [31]: 0.14 µg/mL; Virus Neutralization Potency [32]: 4.96 µg/mL; Virus Neutralization Potency [33]: 0.13 µg/mL; Virus Neutralization Potency [34]: 2.19 µg/mL; Virus Neutralization Potency [35]: 0.81 µg/mL; Virus Neutralization Potency [36]: 0.2 µg/mL; Virus Neutralization Potency [37]: 0.03 µg/mL; Virus Neutralization Potency [38]: > 100 µg/mL |
| 1.34.35-1 (antibody, human IgG1, kappa, V domains shown) VH: QVQLVQSGAEVKKPGASVRVSCKASGYNIRDYFIHWWRQAPGQGLQWVGWINPKTGQPNNPRQFQGRVTLTRHASWDFDTFSFYMDLKALRSDDTAVYFCARQRTDYWDFDVWGSGTQVTVSS VL: DIQMTQSPSSLSASVGDRVTITCQANGYLNWYQQKPGKAPKLLIYDGSNLETGVPSRFSGSRWGQEYTLTISSLQPEDIATYFCQVYEFVGPGTNLDIKR | – | – | – | – | – | – | – | – | – | – | – | – | – | – | – | – | – | – | – | – | ELISA (A450) (BSA): 0.06 A450 |
